According to article PMC10570030 (Nucleic Acids Research, 2023):
Where no end group is shown, it is not given here. Me3 = trimethyl-lysine (Kme3); Me2 = dimethyl-lysine (Kme2)

Key:
LEDGF/p52 = LEDGF/p52 (UniProt O75475-2 1-333); experiment: NMR titration
LEDGF/p75 = LEDGF/p75 (UniProt O75475 1-530); experiment: SEC

Binder | Kd (LEDGF/p52) | binding result (LEDGF/p75)
SAPATGGVKKPHRY [histone H3 peptide SAPATGGVKKPHRY, unmodified] | 6 mM | 
SAPATGGVK(Me)KPHRY [histone H3 peptide SAPATGGVKme1KPHRY] | 5.4 mM | 
PogZ(1117–1410) (domain or fragment) SNAASLPLSMIVAIDEISLFLDTEVLSSDDRKENALQTVGTGEPWCDVVLAILADGTVLPTLVFYRGQMDQPANMPDSILLEAKESGYSDDEIMELWSTRVWQKHTACQRSKGMLVMDCHRTHLSEEVLAMLSASSTLPAVVPAGCSSKIQPLDVCIKRTVKNFLHKKWKEQAREMADTACDSDVLLQLVLVWLGEVLGVIGDCPELVQRSFLVASVLPGPDGNINSPTRNADMQEELIASLEEQLKLSGEHSESSTPRPRSSPEETIEPESLHQLFEGESETESFYGFEEADLDLMEI |  | binds
SAPATGGVK(Me2)KPHRY [histone H3 peptide SAPATGGVKme2KPHRY] | 2.4 mM | 
SAPATGGVK(Me3)KPHRY [histone H3 peptide SAPATGGVKme3KPHRY] | 2.7 mM | 
